Source: US20160068844A1 (Sanofi, published 2016)

Columns and labels:
[1] = molecular target: T1, human IL17A (human, UniProt Q16552 24-155); assay: ELISA, plates coated with IL17A, serial dilutions of sIL17R, detection with biotinylated anti-IL17RA and streptavidin-HRP
T1 construct: also called interleukin-17A
T1 sequence (looked up): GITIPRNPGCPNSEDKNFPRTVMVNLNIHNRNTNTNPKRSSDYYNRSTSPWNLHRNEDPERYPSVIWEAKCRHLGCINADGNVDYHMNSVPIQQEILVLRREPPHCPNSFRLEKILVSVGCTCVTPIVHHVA
Method: (§1) For sIL17R binding to IL17A, ELISA plates were coated with 100 μg/ml human IL17A or mouse IL17A overnight, then blocked with 1% BSA. Serial two-fold dilutions of sIL17R were added in triplicate to the plate and incubated for 1 h at 37° C. Unbound receptor was washed from the plate in an ELISA plate washer. 100 μl biotinylated anti-IL17RA (1 μg/ml) was added to each well and incubated 1 h at room temperature and excess antibody was washed away. Each well was incubated with streptavidin-HRP conjugate and washed. Bound HRP was measured by incubation with TMBD substrate for 20 minutes followed by addition of acid stop solution. OD was measured at 450 nm.

[2] = molecular target: T2, mouse IL17A (mouse, UniProt Q62386 26-158); assay: as above
T2 construct: also called recombinant mouse Il17a
T2 sequence (looked up): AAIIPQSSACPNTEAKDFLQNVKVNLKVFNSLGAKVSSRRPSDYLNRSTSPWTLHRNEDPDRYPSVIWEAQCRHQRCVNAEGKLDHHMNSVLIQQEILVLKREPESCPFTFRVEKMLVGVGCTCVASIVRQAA
Method: as §1

B1: sIL17R-9gly-CH3 (soluble human IL-17 receptor A linked by nine glycines to the CH3 domain of human IgG1) (Fc fusion)
chain: SLRLLDHRALVCSQPGLNCTVKNSTCLDDSWIHPRNLTPSSPKDLQIQLHFAHTQQGDLFPVAHIEWTLQTDASILYLEGAELSVLQLNTNERLCVRFEFLSKLRHHHRRWRFTFSHFVVDPDQEYEVTVHHLPKPIPDGDPNHQSKNFLVPDCEHARMKVTTPCMSSGSLWDPNITVETLEAHQLRVSFTLWNESTHYQILLTSFPHMENHSCFEHMHHIPAPRPEEFHQRSNVTLTLRNLKGCCRHQVQIQPFFSSCLNDCLRHSATVSCPEMPDTPEPIPDYMTGGGGGGGGGQPREPQVYTLPPSRDELTKNQVSLTCLVKGFYPSDIAVEWESNGQPENNYKTTPPVLDSDGSFFLYSKLTVDKSRWQQGNVFSCSVMHEALHNHYTQKSLSLSPG
notes: also called sIL17RA-9gly-CH3; sIL17R-9G-CH3
B1: binds [1]; binds [2].
